Patent US20140302029A1 (SAMSUNG ELECTRONICS, published 2014)

How the values were obtained:
[1] = molecular target: T1, EGFR-Fc (#344-ER, R&D Systems) (UniProt P00533 25-645); assay: SPR, Biacore T100; ME-03S captured on human Fab binder, EGFR-Fc injected
T1 construct: Bought reagent; not shown: Fc part of the bought fusion
Experimental: (§1) In addition, the affinities of the prepared anti-c-Met/anti-EGFR bispecific antibody toward two types of antigens (c-Met/EGFR) were each identified using Biacore T100 (GE). A human Fab binder (GE Healthcare) was immobilized at the surface of a CM5 chip (#BR-1005-30, GE) according to the manufacturer's specifications. […] 10 mM Glycine-HCl (pH 1.5) solution was injected thereto to regenerate the surface. In order to measure affinity, the data obtained from this experiment was fitted using BIAevaluation software (GE Healthcare, Biacore T100 evaluation software).

[2] = molecular target: T2, c-Met-Fc (#358-MT/CF, R&D Systems) (human, UniProt P08581 25-932); assay: SPR, Biacore T100; ME-03S captured on human Fab binder, c-Met-Fc injected
T2 construct: also called human c-Met/Fc fusion protein (R&D Systems); not shown: Fc part of the bought fusion
T2 sequence (P08581 25-932 limits assumed): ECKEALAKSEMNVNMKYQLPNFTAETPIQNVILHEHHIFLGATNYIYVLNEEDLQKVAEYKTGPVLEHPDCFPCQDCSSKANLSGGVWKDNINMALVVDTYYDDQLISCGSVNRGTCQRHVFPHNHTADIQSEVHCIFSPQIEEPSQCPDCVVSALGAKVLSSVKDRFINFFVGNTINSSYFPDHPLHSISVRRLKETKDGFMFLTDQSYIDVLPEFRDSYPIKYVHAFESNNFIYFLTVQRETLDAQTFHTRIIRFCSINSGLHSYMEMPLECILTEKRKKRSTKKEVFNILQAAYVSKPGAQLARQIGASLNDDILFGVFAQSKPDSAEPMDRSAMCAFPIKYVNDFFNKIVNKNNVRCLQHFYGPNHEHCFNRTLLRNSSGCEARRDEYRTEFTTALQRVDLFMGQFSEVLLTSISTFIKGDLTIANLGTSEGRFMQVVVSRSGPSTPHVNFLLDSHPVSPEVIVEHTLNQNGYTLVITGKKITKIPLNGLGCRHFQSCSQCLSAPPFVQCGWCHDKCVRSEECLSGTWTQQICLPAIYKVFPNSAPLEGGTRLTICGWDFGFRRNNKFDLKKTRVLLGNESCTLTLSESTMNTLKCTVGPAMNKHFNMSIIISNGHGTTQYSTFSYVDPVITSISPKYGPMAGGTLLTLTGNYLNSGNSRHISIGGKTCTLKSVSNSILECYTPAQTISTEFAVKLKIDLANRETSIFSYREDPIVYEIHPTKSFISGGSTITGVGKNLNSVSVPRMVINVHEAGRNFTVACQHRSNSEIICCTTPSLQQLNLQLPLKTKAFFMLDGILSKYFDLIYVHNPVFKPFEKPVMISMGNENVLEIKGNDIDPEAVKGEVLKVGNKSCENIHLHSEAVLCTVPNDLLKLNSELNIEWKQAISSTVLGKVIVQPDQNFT
Experimental: as §1

Kd [1]: 0.12 nM
koff [1]: 2.7e-05 s⁻¹
kon [1]: 240000 M⁻¹ s⁻¹
Kd [2]: 0.14 nM
koff [2]: 9.3e-05 s⁻¹
kon [2]: 660000 M⁻¹ s⁻¹
B1: anti-c-Met/anti-EGFR bispecific antibody ME-03S (bispecific antibody)
heavy: EVQLVESGGGLVQPGGSLRLSCAASGFTFTDYYMSWVRQAPGKGLEWLGFIRNKANGYTTEYSASVKGRFTISRDNSKNTLYLQMNSLRAEDTAVYYCARDNWFAYWGQGTLVTVSSASTKGPSVFPLAPCSRSTSESTAALGCLVKDYFPEPVTVSWNSGALTSGVHTFPAVLQSSGLYSLSSVVTVPSSNFGTQTYTCNVDHKPSNTKVDKTVERKCCVECPPCPAPPVAGPSVFLFPPKPKDTLMISRTPEVTCVVVDVSHEDPEVQFNWYVDGVEVHNAKTKPREEQFNSTFRVVSVLTVVHQDWLNGKEYKCKVSNKGLPAPIEKTISKTKGQPREPQVYTLPPSREEMTKNQVSLTCLVKGFYPSDIAVEWESNGQPENNYKTTPPMLDSDGSFFLYSKLTVDKSRWQQGNVFSCSVMHEALHNHYTQKSLSLSPGKGGGGSGGGGSQVQLVQSGAEVKKPGSSVKVSCKASGFTFTDYKIHWVRQAPGQCLEWMGYINPNSGYSTYASKFQGRVTITADKSTSTAYMELSSLRSEDTAVYYCARLSPGGYYVMDAWGQGTTVTVSSGGGGSGGGGSGGGGSDIQMTQSPSSLSASVGDRVTITCRASQGINNYLNWYQQKPGKAPKLLIYNTNNLQTGVPSRFSGSGSGTEFTLTISSLQPEDEATYYCLQHNSFPTFGQCTKLEIKRT
light: DIQMTQSPSSLSASVGDRVTITCKSSQSLLASGNQNNYLAWYQQKPGKAPKMLIIWASTRVSGVPSRFSGSGSGTDFTLTISSLQPEDFATYYCQQSYSRPYTFGQGTKVEIKRTVAAPSVFIFPPSDEQLKSGTASVVCLLNNFYPREAKVQWKVDNALQSGNSQESVTEQDSKDSTYSLSSTLTLSKADYEKHKVYACEVTHQGLSSPVTKSFNRGEC
